From PMC13466294, “Nucleolaron1511 and Nucleolaron1510 Facilitate Effective Intracellular Delivery of Azami Green Protein in HeLa Cells” (International Journal of Molecular Sciences, 2026)

Tests used:
HeLa cells [1] = test: Cellular uptake of TAMRA-labeled Nuc1510 by fluorescence microscopy; assay type: cell-based; details: 5 µM in DMEM with 10% FBS, 1 h, 4 h or overnight (any incubation condition)
Description: To examine the intrinsic cell-penetrating ability of Nuc1510, HeLa cells were treated with TAMRA-labeled Nuc1510 prepared in medium supplemented with 10% FBS and analyzed by fluorescence microscopy at 1 h, 4 h, and overnight incubation time points.
HeLa cells were seeded at 2 × 10^4 cells per well in 8-well chamber slides (Millicell EZ Slide, Sigma-Aldrich, St. Louis, MO, USA; or µ-Slide 8 Well glass-bottom, ibidi, Gräfelfing, Germany) and allowed to adhere for 24 h. For assessment of intrinsic cell-penetrating ability, the culture medium was replaced with free TAMRA or TAMRA–Nuc1510 at 5 µM prepared in DMEM supplemented with 10% FBS. For assessment of cargo delivery, cells were treated with AG, AG–Nuc1511, AG–Nuc1510, or AG–TAT at 1, 2, or 3 µM prepared in DMEM with 10% FBS. All cargo delivery treatments were performed at 37 °C, and the highest concentration (3 µM) was additionally tested at 4 °C to assess the contribution of energy-dependent uptake pathways.
TAMRA–Nuc1510 samples were incubated for 1 h, 4 h, or overnight at 37 °C, whereas all AG–CPP samples were incubated overnight only. […] Fluorescence imaging was performed using a Keyence BZ-X800 (Keyence, Osaka, Japan) digital fluorescence microscope. […]

HeLa cells [2] = test: Cell viability by MTT assay; assay type: cell-based; details: 24 h
Description: To assess the cytotoxic potential of Nuc1511 and Nuc1510, HeLa cells were treated with AG–Nuc1511 or AG–Nuc1510 at concentrations of 1, 3, 5, and 10 µM for 24 h, and cell viability was quantified using the MTT assay (Figure 4). AG–Nuc1511 caused a gradual concentration-dependent decline in viability, reaching approximately 78% at 10 µM, which was statistically significant relative to the untreated control. […] Taken together, both fusion proteins were well tolerated at concentrations up to 5 µM, with cytotoxicity becoming apparent only at 10 µM.
HeLa cells were seeded at 1 × 10^4 cells per well in 96-well microplates (Nunc^TM MicroWell^TM; Thermo Fisher Scientific) and allowed to adhere overnight. The culture medium was replaced with AG–Nuc1511 or AG–Nuc1510 at 1, 3, 5, or 10 µM prepared in DMEM supplemented with 10% FBS. Cell viability was assessed by MTT assay. Following 24 h incubation, treatment solutions were removed and cells were washed with PBS. A mixture of 50 µL MTT solution (Fujifilm) (5 mg/mL in PBS) and 50 µL Opti-MEM I Reduced Serum Medium (Thermo Fisher Scientific) was added to each well, and plates were incubated at 37 °C for 3 h. The medium was then removed, and formazan crystals were dissolved by addition of 150 µL MTT solvent (4 mM HCl, 0.1% NP-40 substitute in isopropanol), followed by 30 min agitation on an orbital shaker protected from light, with additional pipetting to ensure complete dissolution. Absorbance was measured at 590 nm. All conditions were performed in triplicate.

four cell lines = details: CPP fused to EGFP, across four cell lines; ref 45 (Patel et al.); cited from earlier work
Description: To quantify intracellular delivery, flow cytometry was performed following a stringent surface-depletion protocol. Cells were washed with an acidic glycine-NaCl solution to disrupt electrostatic interactions between surface-bound AG–CPP and the plasma membrane, then treated with trypsin, which both detaches cells from the culture plate and cleaves CPP sequences at arginine and lysine residues—amino acids abundant in all constructs tested—thereby eliminating residual surface-associated fluorescence. This protocol ensures that the measured fluorescence predominantly reflects int ...

For “5(6)-carboxytetramethylrhodamine [Free TAMRA]”, the “Intracellular TAMRA fluorescence” value (HeLa cells [1]) was “no detectable intracellular fluorescence”.

In the case of “MKDHLIHNHHKEEHAHAHNKDYDIPTTHHAHHSTENLYFQGSSGSSGMSVIKPEMKIKLCMRGTVNGHNFVIEGEGKGNPYEGTQILDLNVTEGAPLPFAYDILTTVFQYGNRAFTKYPADIQDYFKQTFPEGYHWERSMTYEDQGICTATSNISMRGDCFFYDIRFDGTNFPPNGPVMQKKTLKWEPSTEKMYVRDGVLKGDVNMALLLEGGGHYRCDFKTTYKAKKDVRLPDAHKVDHRIEILKHDKDYNKVKLYENAVARYSMLPSQAKGLQQGGTGGGGSTLKERCLQVVRSLVKKKRTLRKNDRKKR [AG–Nuc1511, monomeric Azami Green genetically fused at its C-terminus via a linker to Nuc1511]”, the “Viability (%)” value (HeLa cells [2]; 10 µM, relative to untreated cells (100%), n = 3, 10 µM) is reported as “approximately 78%”.

For “MKDHLIHNHHKEEHAHAHNKDYDIPTTHHAHHSTENLYFQGSSGSSGMSVIKPEMKIKLCMRGTVNGHNFVIEGEGKGNPYEGTQILDLNVTEGAPLPFAYDILTTVFQYGNRAFTKYPADIQDYFKQTFPEGYHWERSMTYEDQGICTATSNISMRGDCFFYDIRFDGTNFPPNGPVMQKKTLKWEPSTEKMYVRDGVLKGDVNMALLLEGGGHYRCDFKTTYKAKKDVRLPDAHKVDHRIEILKHDKDYNKVKLYENAVARYSMLPSQAKGLQQGGTGGGGSKVLSRVVQLCREKLTRRRRSNRR [AG–Nuc1510, monomeric Azami Green genetically fused at its C-terminus via a linker to Nuc1510]”, the Reduction of viability (HeLa cells [2]; 10 µM) was “approximately 50%” and the Effect on viability (HeLa cells [2]; 1, 3, or 5 µM, Welch's t-test against untreated control) was “did not significantly reduce viability”.

In the case of Penetratin, the “Uptake efficiency relative to TAT” value (four cell lines) is given as “performed comparably to TAT”.
